Data from patent US12459987B2, “Monoclonal antibodies for prevention and treatment of herpes simplex viral infections” (priority 2019, dated 2025).

Legend:
gB-1 = gB-1 (Human herpesvirus 1, UniProt P10211); assay: Luminex competition: inhibition of binding of BMPC-23 human IgG to gB-1; design: species or system HSV-1; details: for Competition with BMPC-23: Table 3 summary
Protocol: FIGS. 10A-10G show the capacity of gB-1 specific mouse monoclonal IgG antibodies to inhibit binding of BMPC-23 human IgG antibodies to gB-1.
Finding BMPC-like antibodies. Nine out of 10 gB-1 specific mouse monoclonal IgG antibodies in FIG. 3 were tested for their capacity to inhibit binding of BMPC-23 human IgG antibodies to gB-1. Serially diluted, gB-1 specific mouse monoclonal antibodies or irrelevant, control mouse antibody (H33Lγ1) were incubated with gB-1 conjugated Luminex beads. After incubation, fixed concentration (2 ng/ml) of BMPC-23 human IgG antibodies were added to each well. After washing, mouse anti-human lgG-PE was added to detect binding of human BMPC-23 antibodies. […] Strong inhibition by HSV010-4 (>95% at 222 ng/ml), HSV010-7 (>90% at 222 ng/ml), and HSV010-34 (>80% at 222 ng/ml), shown in FIGS. 10B, 10F, and 10G, respectively, indicates these antibodies bind epitopes on gB-1 closely overlapping with the one recognized by BMPC-23. Therefore, similar protective efficacy as BMPC-23 is expected from these antibodies (experiments in progress). […] Protective efficacy of these antibodies need to be tested (experiments in progress).

[1] = biological target: glycoprotein B of HSV-1 (gB-1) (Human herpesvirus 1, UniProt P10211); assay: Luminex multiplex assay, binding to gB-1; details: Table 3 summary
Protocol: FIGS. 9A and 9B are graphs of median fluorescence intensity (MFI) versus IgG concentration (ng/ml), showing the binding of various recombinant antibodies to gB-1 as measured by Luminex multiplex assay.
BMPC-23 binds HSV-1 gB (gB-1). The gB-1 binding of the antibodies was determined by Luminex multiplex assay. Mixtures of antigen (gB-1)-conjugated microspheres (1,000 counts each) were added to each well of 96-well filter plates (Millipore). After washing with PBS containing 1% BSA, 0.05% Tween 20 and 0.05% NaN3, serially diluted recombinant antibodies (5E7, 19G7, 18G4, 22E10, 3A2, 17G3, 22D10, 32H6, 33B8, 25H7, BMPC-23, and S5V2-29) were added to the plates and incubated for 2 hours at room temperature, with mild agitation of the plates. Samples were diluted in PBS containing 1% cow milk, 1% BSA, 0.05% Tween 20 and 0.05% NaN3. After washing, PE goat anti-mouse IgG was added to the plates and incubated for 1 hour at room temperature with mild agitation. After washing, microspheres were resuspended in PBS containing 1% BSA, 0.05% Tween 20 and 0.05% NaN3 and fluorescent signals from each microsphere were measured in a Bio-Plex® 3D machine.
Finding gB-1 specific HSV antibodies. After Nojima culture (single B-cell culture), HSV-specific antibodies were cloned from germinal center B cells and tested for binding to HSV-1 gB-1 by Luminex multiplex assay as described above. FIGS. 9A and 9B show the gB-1 binding results for 10 antibodies in comparison with BMPC-23. With the exception of BMPC-23, the antibodies in Table 3 were derived from germinal center B cells (lymph nodes) taken 15-17 days after primary vaccination with ΔgD-2. BMPC-23 was derived from bone marrow plasmacytes taken 2 weeks post-boost with ΔgD-2. Nucleotide sequences and amino acid sequences for the heavy-chains and light chains are shown in Table 4, as are the amino acid sequences for the light chain and heavy chain CDR1, CDR2, and CDR3.

[2] = tested on: HSV-2 G infected cell lysates; assay: ELISA binding of recombinant antibodies to HSV-2 G infected cell lysates; design: species or system HSV-2 G strain; details: Table 3 summary
Protocol: Binding of recombinant antibodies to HSV-2 G lysates was tested by ELISA. Both heavy and light chain V(D)J rearrangements were amplified from selected single B-cell culture wells (22D10, 32H6, 33B8, and 35H7) by standard RT-PCR. These cloned V(D)J rearrangements were introduced into expression vectors. Recombinant antibodies were obtained by co-transfection of these expression vectors into Expi293F cells. ≥4 mg of purified IgGs was obtained (not shown). […]
Briefly, mice were vaccinated with ΔgD-2 and then 16 days after vaccination, the draining, inguinal lymph nodes were harvested. GC B cells were isolated from these tissues and were cultured in Nojima cultures. Although overall cloning efficiency of GC B cells from these (shipped) tissues was lower than those from freshly isolated tissues (6% vs. 20%), 50 GC clones were obtained that were specific to HSV-2 G strain (HSV-2 G or HSV2-G) lysate. GC B cells from inguinal lymph nodes of mice vaccinated with ΔgD-2 were sorted directly into 96-well plates (1 cell/well). These GC B cells were then cultured in the presence of NB-21.2D9 feeder cells. After culture, presence of IgG was first determined by ELISA, and then the reactivity of culture supernatant IgG against HSV-2 G lysates (HSV-2 G) and uninfected Vero lysates were tested by ELISA.
Based on the obtained V(D)J sequences from each B-cell culture, paired heavy and light chains were re-expressed (as recombinant mouse IgG1 and IgG2c antibodies) in Expi293F cells (Kuraoka et al. Immunity 2016; DiLillo et al. Nature Medicine 2013). […] As expected, all recombinant antibodies reacted specifically with HSV-2 G lysates (FIG. 3). […] Binding of recombinant antibodies to HSV-2 G lysates was tested by ELISA. Both heavy and light chain V(D)J rearrangements were amplified from selected single B-cell culture wells (22D10, 32H6, 33B8, and 35H7) by standard RT-PCR. These cloned V(D)J rearrangements were introduced into expression vectors. Recombinant antibodies were obtained by co-transfection of these expression vectors into Expi293F cells. ≥4 mg of purified IgGs was obtained (not shown). […] These recombinant antibodies (≥4 mg each) were tested for identification of reacting antigen(s), in an in vitro FcγRIV activation assay (Promega FcγRIV ADCC Reporter Bioassay)(FIG. 4), and in vivo protection assay. […]

Molecule | Competition with BMPC-23 (gB-1) | Target antigens [1] | Binding to HSV-lysate [2] | Inhibition of binding of BMPC-23 human IgG antibodies to gB-1 (in words) (gB-1; BMPC-23 human IgG 2 ng/ml)
HSV010-4: gB-1 specific mouse monoclonal IgG; IgH SEQ ID NO: 32, IgL SEQ ID NO: 34 (antibody, V domains shown, HSV010-4 heavy chain; HSV010-4 light chain) VH: QVQLKESGPGLVAPSQSLSITCTVSGFSLSRHDVSWVRQPPGKGLEWLGVIWGDGSTNYHSALISRLSISKDNSKSQVFLKLNSLQNDDTATYYCAKEDYGIFPYWGQGTLVTVSAA VL: DIKMTQSPSSMYASLGEKVTITCKASQDISSYLSWFQQKPGKSPKTLIYRANRLVDGVPSRFSGSGSGQDYSLSISSLDYEDMGIYYCLQYDEFPLTFGAGTKLELKR | Strong | gB | Yes | –
HSV010-8: gB-1 specific mouse monoclonal IgG; IgH SEQ ID NO: 68, IgL SEQ ID NO: 70 (antibody, V domains shown, HSV010-8 heavy chain; HSV010-8 light chain) VH: QVQLKESGPGLVAPSQSLSITCTVSGFSLNNYDVSWVRQPPGKGLEWLGVIWGDGSTNYHSALISRLSISKDNSKSQVFLKLNSLQTDDTATYYCAKEDYGIFPYWGQGTLVTVSAA VL: DIKMTQSPSSMYASLGERVTITCKASQDINSYLSWFQQKPGKSPKTLIYRANRLVDGVPSRFSGSGSGQDYSLTISSLEYENMGIYYCLQYDEFPLTFGAGTKLELKR | – | gB | Yes | –
HSV010-20: gB-1 specific mouse monoclonal IgG; IgH SEQ ID NO: 64, IgL SEQ ID NO: 66 (antibody, V domains shown, HSV010-20 heavy chain; HSV010-20 light chain) VH: DVQLQESGPGMVRPSQSLSLTCTVTGYSITSGYDWHWIRHFPGNKLEWMGYISYSGLTNYNPSLRSRFSITHDTSKNHFFLKLNSVTTEDTATYYCARGPPWYFDVWGTGTTVTVSSA VL: DIVMTQSQKFMSTSVGGRVSITCKASQIVRATVAWYQQKPGQSPKPLIYLASNRHTGVPDRFTGSGSGTDFTLTISNVQSEDLADYFCLQYWNYPYTFGGGTKLEIKR | No | gB | Yes | No inhibition
HSV010-7: gB-1 specific mouse monoclonal IgG; IgH SEQ ID NO: 36, IgL SEQ ID NO: 38 (antibody, V domains shown, HSV010-7 heavy chain; HSV010-7 light chain) VH: QVQLQQSGPELVKPGASVKLSCKASGYTFTNYDINWVKQRPGQGLEWIGWIYPRDGSTKYNEKFKGKATLTIDTSSSTAYMELHSLTSEDSAVYFCARGIFYVNYDVYWGQGTLVTVSAA VL: DIQMTQSSSFLSVSLGGRVTITCKASDHINNWLAWYQQKPGHAPRLLISGAASLETGVPSRFSGSGSGKDYTLTITSLQTEDVATYYCQQYWSSPLTFGGGTKLELKR | Strong | gB | Yes | –
HSV010-34: gB-1 specific mouse monoclonal IgG; IgH SEQ ID NO: 40, IgL SEQ ID NO: 42 (antibody, V domains shown, HSV010-34 heavy chain; HSV010-34 light chain) VH: EVQLVESGGGLVQPGESLKLSCESNEYEFPSHDMSWVRKTPEKRLELVAAINSDGGSTYYPDTMERRFIISRDNTKKTLYLQMSSLRSEDTALYYCARHSSGYVLDYWGQGTSVTVSSA VL: DIQMTQSSSYLSVSLGGRVTITCKASDHINHWLAWYQQKPGNAPRLLISGATSLETGVPSRFSGSGSGKDYTLSIASLQTEDVATYYCQQYWSTPYTFGGGTKLEIKR | Strong | gB | Yes | –
HSV010-6: gB-1 specific mouse monoclonal IgG; IgH SEQ ID NO: 44, IgL SEQ ID NO: 46 (antibody, V domains shown, HSV010-6 heavy chain; HSV010-6 light chain) VH: QVQLQQPGAELVKPGASVKLSCKASGYTFTNYWIHWVKQRPGQGLEWIGMIHPNIGITHYSERFKSKATLTVDKSSTTAYMQLSSLTSEDSAVYYCARGSDSGSAWFAYWGQGTLVTVSAA VL: DIQMTQSSSYLSVSLGGRVTITCKASDHINNWLAWYLQKPGNAPRLLMSGATSLETGVPSRFSGSGSGKDYTLSITSLQTEDVATYYCQQYWSTPLTFGAGTKLELKR | Weak | gB | Yes | –
HSV010-15: gB-1 specific mouse monoclonal IgG; IgH SEQ ID NO: 72, IgL SEQ ID NO: 74 (antibody, V domains shown, HSV010-15 heavy chain; HSV010-15 light chain) VH: QVQLQQPGAELVKPGASVKLSCKASGYTFTSYWIHWVQQRPGQGLEWIGMIHPNSGITNYSEKFKSKATLTLDKSSSTAYMQLISLTSEDSAVYYCARGSSSGSAWFAYWGQGTLVTVSAA VL: DIQMTQSSSYLSVSLGGRVTITCKASDHINNWLPWYQQKPGNAPRLLISGATSLETGVPSRFSGSGSGKDYTLSITSLQTEDVATYYCQQYWSSPLTFGAGTKLELKR | – | gB | Yes | –
HSV010-16: gB-1 specific mouse monoclonal IgG; IgH SEQ ID NO: 76, IgL SEQ ID NO: 78 (antibody, V domains shown, HSV010-16 heavy chain; HSV010-16 light chain) VH: QIQLVQSGPELKKPGETVKISCKASGYTFTTYGMSWVKQAPGKDLKWMGWINTYSGVSTYGDDFKGRFALSLETSASTAYLQINNLKNEDTATYFCAQLNYGMDYWGQGTSVTVSSA VL: DIVMTQSHKFMSTSVGDRVSITCKASQDVSTSLAWYQQKPGQSPKLLIYSASYRYTGVPDRFTGSGSGTDFTFTISSVQAEDLAVYYCHQHYSIPRTFGGGTKLEIKR | – | gB | Yes | –
